Data published in article PMC9482650, “Quantitative fragmentomics allow affinity mapping of interactomes” (Nature Communications, 2022).

Assays:
Assay in all cases: holdup assay
Set-up in all cases: key: below the threshold = too weak to quantify, mostly under pKd 3.1 to 4
[1] = biological target: CARD14, Q9BXL6
[2] = biological target: T1, CNKSR1, Q969H4
T1 sequence (Q969H4 191-295, limits assumed, looked up): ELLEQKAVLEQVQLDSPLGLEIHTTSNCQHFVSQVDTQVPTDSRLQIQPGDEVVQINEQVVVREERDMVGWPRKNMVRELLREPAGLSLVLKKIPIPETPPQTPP

[3] = biological target: CNKSR3, Q6P9H4
[4] = biological target: DVL2, O14641
[5] = biological target: GIPC3, Q8TF64
[6] = biological target: T2, GRIP1_1, Q9Y3R0
T2 sequence (Q9Y3R0 48-146, limits assumed, looked up): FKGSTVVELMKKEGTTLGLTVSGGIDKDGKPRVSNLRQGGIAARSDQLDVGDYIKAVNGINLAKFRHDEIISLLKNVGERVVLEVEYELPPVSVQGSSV

[7] = biological target: GRIP2_2, Q9C0E4
[8] = biological target: LMO7, Q8WWI1
[9] = biological target: LNX1_4, Q8TBB1
[10] = biological target: T3, LNX2_4, Q8N448
T3 sequence (Q8N448 595-690, limits assumed, looked up): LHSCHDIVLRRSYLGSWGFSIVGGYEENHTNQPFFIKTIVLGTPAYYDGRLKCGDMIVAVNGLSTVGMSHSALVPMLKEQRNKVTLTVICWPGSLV

[11] = biological target: MAGI1_4, Q96QZ7
[12] = biological target: MAGI1_5, Q96QZ7
[13] = biological target: T4, MLLT4, P55196
T4 sequence (P55196 1002-1103, limits assumed, looked up): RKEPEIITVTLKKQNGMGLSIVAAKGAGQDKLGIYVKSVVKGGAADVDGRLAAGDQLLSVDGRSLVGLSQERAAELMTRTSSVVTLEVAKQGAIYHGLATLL

[14] = biological target: T5, MPDZ_7, O75970
T5 sequence (O75970 1146-1253, limits assumed, looked up): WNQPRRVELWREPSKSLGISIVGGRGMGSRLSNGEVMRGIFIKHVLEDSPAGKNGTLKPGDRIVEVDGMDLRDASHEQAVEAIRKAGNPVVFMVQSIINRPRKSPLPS

[15] = biological target: T6, PDZD7_2, Q9H5P4
T6 sequence (Q9H5P4 205-303, limits assumed, looked up): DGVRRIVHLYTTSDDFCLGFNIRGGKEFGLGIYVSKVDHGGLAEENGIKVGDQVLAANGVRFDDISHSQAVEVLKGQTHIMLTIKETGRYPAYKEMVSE

[16] = biological target: T7, PDZD8, Q8NEN9
T7 sequence (Q8NEN9 361-459, limits assumed, looked up): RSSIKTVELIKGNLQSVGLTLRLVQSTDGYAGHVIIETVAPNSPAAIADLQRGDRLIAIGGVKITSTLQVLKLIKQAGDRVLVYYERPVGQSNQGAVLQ

[17] = biological target: T8, PDZRN3_2, Q9UPQ7
T8 sequence (Q9UPQ7 414-513, limits assumed, looked up): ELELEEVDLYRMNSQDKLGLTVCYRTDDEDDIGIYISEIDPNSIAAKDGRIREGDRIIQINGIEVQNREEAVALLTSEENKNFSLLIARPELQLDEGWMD

[18] = biological target: PREX1_1, Q8TCU6
[19] = biological target: PTPN13_2, Q12923
[20] = biological target: SCRIB_4, Q14160
[21] = biological target: T9, SHANK2, Q9UPX8
T9 sequence (Q9UPX8 621-730, limits assumed, looked up): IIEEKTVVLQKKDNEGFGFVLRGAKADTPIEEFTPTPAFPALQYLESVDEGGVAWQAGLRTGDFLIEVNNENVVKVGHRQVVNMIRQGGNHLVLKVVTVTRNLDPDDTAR

[22] = biological target: T10, SHROOM3, Q8TF72
T10 sequence (Q8TF72 20-120, limits assumed, looked up): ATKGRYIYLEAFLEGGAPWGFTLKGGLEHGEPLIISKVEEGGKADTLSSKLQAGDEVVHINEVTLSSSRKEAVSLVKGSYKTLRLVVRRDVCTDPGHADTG

[23] = biological target: TJP1_1, Q07157
[24] = biological target: T11, USH1C_3, Q9Y6N9
T11 sequence (Q9Y6N9 447-547, limits assumed, looked up): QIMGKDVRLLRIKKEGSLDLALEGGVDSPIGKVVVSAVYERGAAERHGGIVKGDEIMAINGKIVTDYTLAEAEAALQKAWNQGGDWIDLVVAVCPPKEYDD

[25] = biological target: LIMK1, P53667
[26] = modified: phospho on S at position -3 from the C-terminal residue
[27] = plain residues with an end cap or a label only (N-terminal biotin on a linker: (peg)3)
[28] = modified: acetyl on K at position -1 from the C-terminal residue

Sequence of PREX1_1, Q8TCU6 (Q8TCU6 608-718): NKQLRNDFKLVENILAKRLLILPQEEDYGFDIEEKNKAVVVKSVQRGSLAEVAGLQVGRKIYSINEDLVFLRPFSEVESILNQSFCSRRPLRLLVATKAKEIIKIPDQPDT
Sequence of PTPN13_2, Q12923 (Q12923 1363-1462): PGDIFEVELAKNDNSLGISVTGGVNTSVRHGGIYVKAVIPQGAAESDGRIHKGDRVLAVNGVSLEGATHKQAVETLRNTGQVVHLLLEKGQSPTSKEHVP
Sequence of SCRIB_4, Q14160 (Q14160 1095-1204): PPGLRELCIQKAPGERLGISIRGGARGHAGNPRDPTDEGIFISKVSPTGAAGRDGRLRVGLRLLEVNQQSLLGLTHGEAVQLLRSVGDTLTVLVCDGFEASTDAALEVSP
Sequence of TJP1_1, Q07157 (Q07157 18-120): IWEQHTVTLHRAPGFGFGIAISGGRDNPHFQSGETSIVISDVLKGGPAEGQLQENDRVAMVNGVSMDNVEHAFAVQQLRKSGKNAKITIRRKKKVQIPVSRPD
Sequence of MAGI1_5, Q96QZ7 (Q96QZ7 986-1098): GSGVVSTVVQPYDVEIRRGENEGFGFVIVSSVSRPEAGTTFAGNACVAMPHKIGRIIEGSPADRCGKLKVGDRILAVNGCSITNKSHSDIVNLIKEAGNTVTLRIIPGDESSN
Sequence of GIPC3, Q8TF64 (Q8TF64 107-202): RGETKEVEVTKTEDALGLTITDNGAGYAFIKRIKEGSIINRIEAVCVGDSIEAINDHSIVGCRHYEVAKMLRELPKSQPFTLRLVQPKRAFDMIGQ
Sequence of MAGI1_4, Q96QZ7 (Q96QZ7 other isoform, or with tags, fused parts or gaps): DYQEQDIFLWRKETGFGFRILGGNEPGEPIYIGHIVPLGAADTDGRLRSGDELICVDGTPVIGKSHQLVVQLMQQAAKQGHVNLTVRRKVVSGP
Sequence of CARD14, Q9BXL6 (Q9BXL6 558-663): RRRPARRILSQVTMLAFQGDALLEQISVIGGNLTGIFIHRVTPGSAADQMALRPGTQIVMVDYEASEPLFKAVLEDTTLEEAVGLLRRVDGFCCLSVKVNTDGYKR
Sequence of CNKSR3, Q6P9H4 (Q6P9H4 203-303): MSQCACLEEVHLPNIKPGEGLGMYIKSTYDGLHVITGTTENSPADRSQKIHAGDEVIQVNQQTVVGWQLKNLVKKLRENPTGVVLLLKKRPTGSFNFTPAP
Sequence of LNX1_4, Q8TBB1 (Q8TBB1 631-726): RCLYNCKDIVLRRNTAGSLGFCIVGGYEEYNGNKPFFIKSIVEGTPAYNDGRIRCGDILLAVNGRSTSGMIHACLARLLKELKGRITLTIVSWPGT
Sequence of GRIP2_2, Q9C0E4 (Q9C0E4 137-245): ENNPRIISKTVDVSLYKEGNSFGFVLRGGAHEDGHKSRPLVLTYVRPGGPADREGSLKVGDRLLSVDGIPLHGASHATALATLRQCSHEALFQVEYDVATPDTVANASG
Sequence of LIMK1, P53667 (P53667 155-268): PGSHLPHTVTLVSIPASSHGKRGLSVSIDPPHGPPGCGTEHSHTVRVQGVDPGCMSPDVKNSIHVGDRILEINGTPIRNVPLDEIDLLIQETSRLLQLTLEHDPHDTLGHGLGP
Sequence of DVL2, O14641 (O14641 260-359): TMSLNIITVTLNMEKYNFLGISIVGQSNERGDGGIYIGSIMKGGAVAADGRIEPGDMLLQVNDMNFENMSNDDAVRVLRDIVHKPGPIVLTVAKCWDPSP
Sequence of LMO7, Q8WWI1 (Q8WWI1 1037-1138): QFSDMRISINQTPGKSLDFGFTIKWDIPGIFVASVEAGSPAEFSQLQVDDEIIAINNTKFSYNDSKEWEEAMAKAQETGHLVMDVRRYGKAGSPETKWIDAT

## RRVRKLPSTTL [RPS6KA1_-3P, Q15418]
[1]; [26]
  pKd: below the threshold
[2]; [26]
  pKd: 3.49
[3]; [26]
  pKd: below the threshold
[4]; [26]
  pKd: below the threshold
[5]; [26]
  pKd: below the threshold
[6]; [26]
  pKd: below the threshold
[7]; [26]
  pKd: below the threshold
[8]; [26]
  pKd: below the threshold
[9]; [26]
  pKd: below the threshold
[10]; [26]
  pKd: below the threshold
[11]; [26]
  pKd: below the threshold
[12]; [26]
  pKd: below the threshold
[13]; [26]
  pKd: below the threshold
[14]; [26]
  pKd: 3.63
[15]; [26]
  pKd: 3.49
[16]; [26]
  pKd: below the threshold
[17]; [26]
  pKd: 3.72
[18]; [26]
  pKd: below the threshold
[19]; [26]
  pKd: below the threshold
[20]; [26]
  pKd: below the threshold
[21]; [26]
  pKd: below the threshold
[22]; [26]
  pKd: below the threshold
[23]; [26]
  pKd: below the threshold
[24]; [26]
  pKd: below the threshold

## YDEPTTTTSVPL [SARS-Cov2-3a, P0DTC3]
[1]; [27]
  pKd: below the threshold
[2]; [27]
  pKd: below the threshold
[3]; [27]
  pKd: below the threshold
[4]; [27]
  pKd: below the threshold
[5]; [27]
  pKd: below the threshold
[6]; [27]
  pKd: below the threshold
[7]; [27]
  pKd: below the threshold
[25]; [27]
  pKd: below the threshold
[8]; [27]
  pKd: below the threshold
[9]; [27]
  pKd: below the threshold
[10]; [27]
  pKd: below the threshold
[11]; [27]
  pKd: below the threshold
[12]; [27]
  pKd: 3.76
[13]; [27]
  pKd: below the threshold
[14]; [27]
  pKd: below the threshold
[15]; [27]
  pKd: below the threshold
[16]; [27]
  pKd: below the threshold
[17]; [27]
  pKd: below the threshold
[18]; [27]
  pKd: below the threshold
[19]; [27]
  pKd: below the threshold
[20]; [27]
  pKd: below the threshold
[21]; [27]
  pKd: below the threshold
[22]; [27]
  pKd: below the threshold
[23]; [27]
  pKd: below the threshold
[24]; [27]
  pKd: below the threshold

## DEDQHTQITKV [PTEN_Ac, P60484]
[2]; [28]
  pKd: 3.66
[25]; [28]
  pKd: below the threshold
[10]; [28]
  pKd: below the threshold
[12]; [28]
  pKd: 4.84
[14]; [28]
  pKd: 4.8
[16]; [28]
  pKd: below the threshold
[17]; [28]
  pKd: below the threshold
[18]; [28]
  pKd: below the threshold
[19]; [28]
  pKd: below the threshold
[20]; [28]
  pKd: below the threshold
[21]; [28]
  pKd: 3.97
[22]; [28]
  pKd: below the threshold
[23]; [28]
  pKd: 3.94
